Experimental data: the RNAGym collection of RNA variant scans (doi:10.1073/pnas.2313332121)

B1: TPR t1 (parent)
chain: GACCAAUCUGCCCUCAGAGCUCGAGAACAUCUUCGGAUGCAGAGGAGGCAGGCUUCGGUGGCGCGAUAGCGCCAACGUCCUCAACCUCCAAUGCAUCCCACCACAUGAUGAUGCCUGAAGAGCCUUGGUUUUUUG

Variants of: B1
Experiment: polymerase ribozyme fitness, log enrichment relative to wild type (log ratio); higher = more active; in vitro selection for triplet polymerase activity
In short: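 Libraries of mutants in each subunit of a heterodimeric triplet polymerase ribozyme were generated by PCR and transcribed. In triplicate, each went through one in vitro selection round: annealing with biotinylated primer, partner subunit and triplets; frozen incubation at −7 °C; gel excision of extended constructs; streptavidin-bead capture; RT-PCR. Fitness, taken from Illumina sequencing of input and output libraries, is the logarithm of a genotype's enrichment over wild-type enrichment, averaged across replicates with inverse-variance weights. The logarithm is base 2, and genotypes needed ≥10 input reads and ≥1 read per output to be kept.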

Variant | polymerase ribozyme fitness (log ratio)
C72G C101A C114U | -3.4
C72A G77C U92C G122A | -3.67
G71C G113A A121G U133A | -1.06
C72G C88A G113U G127C | -5.08
C72G G77C U78C A105G A119G | -2.47
G71C C101A A121U U126G | -0.863
G71U C80G G107U G117A | -6.69
C72G C82G G93C | -1.73
C72G C114A | -1.55
C72A C82G U112G G117A U126C U129G | -5.85
G71C C72G C123G | -5.34
G71A A111C A118U | -0.257
G71U U81G C114A | -5.63
G71A C124G | 0.316
G71U G117U | -1.78
G71C U132A | -0.602
G71C C85A C101U A105C | -5.59
C72G C101A U106A A119U C123U | -4.15
C72A A103U | -4.58
G71U C97U | -0.285
C72A C124U | 1.25

Variant | polymerase ribozyme fitness (log ratio)
G71U G110C | -3.69
G71U G110A | -1.39
G71U U133G | 0.225
G71A C94U C102A U112G G120A | -4.87
C72G U78C C82U C94A | -0.768
G71C A111U | -4.31
G71A U129A | -1.76
C72G A90G | -1.28
C70U U81A U116G U125A | -5.57
G71A G77U | -1.13
G71A C82A C89U | -1.01
C72G C79A | -0.874
G71A U125A | -0.783
G71U G93U C104U A119G | 0.516
C70U U131G | -2.36
C72A G77A C89U U106C | -1.11
C72A A95C | -0.926
C70U U129A | -1.55
C70U U125G G127A | -1.83
G71A A111G G120U | -2.5
G71C C85U C94U U132A | -2.18

Variant | polymerase ribozyme fitness (log ratio)
G71A U112A | 0.323
G71U U92C | -1.11
C70U U106A U109G | -4.62
G71C G113C | -2.72
C70U U92A | -4.11
C72G A111G G122A | -1.48
C70U U81A U116G | -3.38
C72G C94A A119U | -1.99
C72G C104A | -1.71
C72G G113C U129A | -4.04
G71A C88A | -0.898
C72A C94G C102A C115U | -5.19
G71A C79A C85U | -2.89
C72G C97U | -1.05
G71U G93A | -0.562
G71U G93C | -2.12
C72A C73G C86U C115A C123G | -0.582
G71U G135U | -1.02
C72G A91C U96C C104A | -4.69
G71A C82G | -2.5
G71A C82U | -0.155

Variant | polymerase ribozyme fitness (log ratio)
G71U A121C | 1.43
C72A U112A | 1.59
C72A U87C C88G U116G | -3.6
C72G U78C G113A | -1.93
G71A G93U | -1.52
G71A G93A | -1.39
C72G C82U U131G | -0.338
G71C A108G | -2.34
G71A G135A | -1.21
C72G U78G | -0.102
G71A U96G | -1.35
G71C U87G C98U G113C | -4.17
C72G A83U A90G C114G | -3.25
C72A C86G G122A | -2.26
G71A C72A | -1.46
G71A C72U | -1.32
G71A C104A U129A | -4.5
C72G C73U | -0.887
G71U U129G | -0.793
C72A A111C C124A G127A | 0.235
